Experimental data reported in publication PMC11984735, “Dynamics of the adhesion complex of the human pathogens Mycoplasma pneumoniae and Mycoplasma genitalium” (PLOS Pathogens, 2025).

B1: Fab fragment of monoclonal antibody P1/MCA4, with light chain L1 (Fab, V domains shown)
VH: EVQLQQSGPELVKPGTSMKISCKASGYSFTGYTMNWVKQSHGKSLEWIGLINPYNGGTNYNQKFRGTATLTVDKSSSTAYMELLSLTSEDSAVYYCARSNYAYDLLMDYWGQGTSVTVSS
VL: DVLMTQTPLSLPVSLGDQASISCRFSQTIVHSNGATYLEWYLQRPGQSPKLLIYKVSNRFSGVPDRFSGSGSGTDFTLKISRVEAEDLGVYYCFQGSHVPWTFGGGTKLEIK
notes: LC600310 by the order of listing; here the papain fragment of the heavy chain; modelled in PDB 8ROR; light chain L1, the one seen in the cryo-EM map; The Fab preparation is a mixture of two Fabs with one heavy chain and two different light chains (roughly 70% for the most abundant); this molecule is the one with L1; also called Fab(P1/MCA4); P1/MCA4 Fab; source: papain digestion of monoclonal …
B2: Fab fragment of monoclonal antibody P1/MCA4, with the second light chain (not L1) (Fab, V domains shown)
VH: B1 VH
VL: DVVMTQTPLTLSVTIGQPASISCKSSQSLLDSDGKTYLNCFLQRPGQSPNRLIYLVSRLDSGVPDRFTGSGSGTDFTLKISRVEAEDLGVYYCCQVTQWTFGGGTKLEIK
notes: LC600310 by the order of listing; papain fragment; the second of the two light chains found in P1/MCA4 (not L1); Present in the same Fab preparation as m1; also called Fab(P1/MCA4); P1/MCA4 Fab; source: papain digestion of monoclonal antibody P1/MCA4 (hybridoma), purified (HiTrap Protein G, Superdex 75)

Molecular target: T1, P1 adhesin ectodomain (residues Thr29-Asp1521), Mycoplasma pneumoniae (M. pneumoniae, UniProt P11311)
T1 construct: Adhesin P1 of Mycoplasma pneumoniae, gene MPN_141 (synthetic clone, Genscript), residues 29-1521; also called P1 (29-1521); whole P1 ectodomain; source: E. coli B834 (DE3), purified (HisTrap, Superdex 200)
T1 sequence (P11311 29-1521): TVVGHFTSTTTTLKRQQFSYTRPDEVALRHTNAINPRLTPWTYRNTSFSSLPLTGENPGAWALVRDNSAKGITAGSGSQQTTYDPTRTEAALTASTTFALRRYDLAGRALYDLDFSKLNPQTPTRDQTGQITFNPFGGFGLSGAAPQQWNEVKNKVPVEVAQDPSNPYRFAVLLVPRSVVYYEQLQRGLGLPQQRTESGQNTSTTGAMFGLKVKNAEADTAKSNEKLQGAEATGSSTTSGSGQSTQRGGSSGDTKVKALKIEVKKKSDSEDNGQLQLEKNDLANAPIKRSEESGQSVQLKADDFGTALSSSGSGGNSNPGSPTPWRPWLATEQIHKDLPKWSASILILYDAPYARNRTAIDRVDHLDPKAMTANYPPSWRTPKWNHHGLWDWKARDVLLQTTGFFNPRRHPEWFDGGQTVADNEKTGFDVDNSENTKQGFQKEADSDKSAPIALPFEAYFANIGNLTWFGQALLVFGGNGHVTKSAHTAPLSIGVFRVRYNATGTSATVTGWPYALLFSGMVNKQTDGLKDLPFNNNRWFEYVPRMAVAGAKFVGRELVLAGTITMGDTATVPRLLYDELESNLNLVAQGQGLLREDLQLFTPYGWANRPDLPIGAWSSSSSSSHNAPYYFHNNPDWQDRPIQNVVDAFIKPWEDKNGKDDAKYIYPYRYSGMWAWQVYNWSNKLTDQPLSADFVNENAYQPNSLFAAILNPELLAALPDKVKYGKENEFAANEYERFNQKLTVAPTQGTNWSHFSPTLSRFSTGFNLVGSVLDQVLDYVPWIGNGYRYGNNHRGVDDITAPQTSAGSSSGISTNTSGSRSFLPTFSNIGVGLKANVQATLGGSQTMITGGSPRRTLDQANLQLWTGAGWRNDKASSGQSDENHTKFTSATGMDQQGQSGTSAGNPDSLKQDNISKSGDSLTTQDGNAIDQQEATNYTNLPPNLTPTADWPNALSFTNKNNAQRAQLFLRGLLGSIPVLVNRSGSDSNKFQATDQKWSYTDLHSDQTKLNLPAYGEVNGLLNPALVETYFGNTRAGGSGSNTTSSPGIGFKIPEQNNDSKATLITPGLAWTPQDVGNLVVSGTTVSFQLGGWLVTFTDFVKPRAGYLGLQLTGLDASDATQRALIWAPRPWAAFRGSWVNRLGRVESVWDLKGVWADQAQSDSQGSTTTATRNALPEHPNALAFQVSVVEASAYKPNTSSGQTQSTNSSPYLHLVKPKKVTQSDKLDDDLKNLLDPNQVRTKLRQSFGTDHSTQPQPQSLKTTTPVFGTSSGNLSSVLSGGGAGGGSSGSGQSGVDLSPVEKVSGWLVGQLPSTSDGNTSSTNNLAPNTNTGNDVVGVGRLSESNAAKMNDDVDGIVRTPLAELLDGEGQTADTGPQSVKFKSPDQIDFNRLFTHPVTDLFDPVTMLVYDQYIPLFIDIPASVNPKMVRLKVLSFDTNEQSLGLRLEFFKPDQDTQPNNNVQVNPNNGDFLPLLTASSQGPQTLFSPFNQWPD
Test: SEC-MALS; proteins mixed in solution (Fab and P1 ectodomain in equimolecular amounts; Mab with C-domain constructs); Superdex 200 10/300 GL with MALS and refractive index detectors
Details: both partners purified

Binder	binding result
B1	binds
B2	binds
